Measured values: patent US20110263454A1, “Methods of Identifying Functional Characteristics of Promoters, Transcription Modifying Proteins and Transcription Modulating Agents” (Salk Institute for Biological Studies, priority 2008, published 2011)

B1: PR: Progesterone Receptor (NR3C3), cDNA driver (protein, UniProt P06401 1-933, looked up)
Progesterone receptor: MTELKAKGPRAPHVAGGPPSPEVGSPLLCRPAAGPFPGSQTSDTLPEVSAIPISLDGLLFPRPCQGQDPSDEKTQDQQSLSDVEGAYSRAEATRGAGGSSSSPPEKDSGLLDSVLDTLLAPSGPGQSQPSPPACEVTSSWCLFGPELPEDPPAAPATQRVLSPLMSRSGCKVGDSSGTAAAHKVLPRGLSPARQLLLPASESPHWSGAPVKPSPQAAAVEVEEEDGSESEESAGPLLKGKPRALGGAAAGGGAAAVPPGAAAGGVALVPKEDSRFSAPRVALVEQDAPMAPGRSPLATTVMDFIHVPILPLNHALLAARTRQLLEDESYDGGAGAASAFAPPRSSPCASSTPVAVGDFPDCAYPPDAEPKDDAYPLYSDFQPPALKIKEEEEGAEASARSPRSYLVAGANPAAFPDFPLGPPPPLPPRATPSRPGEAAVTAAPASASVSSASSSGSTLECILYKAEGAPPQQGPFAPPPCKAPGASGCLLPRDGLPSTSASAAAAGAAPALYPALGLNGLPQLGYQAAVLKEGLPQVYPPYLNYLRPDSEASQSPQYSFESLPQKICLICGDEASGCHYGVLTCGSCKVFFKRAMEGQHNYLCAGRNDCIVDKIRRKNCPACRLRKCCQAGMVLGGRKFKKFNKVRVVRALDAVALPQPVGVPNESQALSQRFTFSPGQDIQLIPPLINLLMSIEPDVIYAGHDNTKPDTSSSLLTSLNQLGERQLLSVVKWSKSLPGFRNLHIDDQITLIQYSWMSLMVFGLGWRSYKHVSGQMLYFAPDLILNEQRMKESSFYSLCLTMWQIPQEFVKLQVSQEEFLCMKVLLLLNTIPLEGLRSQTQFEEMRSSYIRELIKAIGLRQKGVVSSSQRFYQLTKLLDNLHDLVKQLHLYCLNTFIQSRALSVEFPEMMSEVIAAQLPKILAGMVKPLLFHKK
B2: hMR: Mineralocorticoid Receptor (NR3C2, MR), cDNA driver (protein, UniProt P08235 1-984, looked up)
Mineralocorticoid receptor: METKGYHSLPEGLDMERRWGQVSQAVERSSLGPTERTDENNYMEIVNVSCVSGAIPNNSTQGSSKEKQELLPCLQQDNNRPGILTSDIKTELESKELSATVAESMGLYMDSVRDADYSYEQQNQQGSMSPAKIYQNVEQLVKFYKGNGHRPSTLSCVNTPLRSFMSDSGSSVNGGVMRAVVKSPIMCHEKSPSVCSPLNMTSSVCSPAGINSVSSTTASFGSFPVHSPITQGTPLTCSPNVENRGSRSHSPAHASNVGSPLSSPLSSMKSSISSPPSHCSVKSPVSSPNNVTLRSSVSSPANINNSRCSVSSPSNTNNRSTLSSPAASTVGSICSPVNNAFSYTASGTSAGSSTLRDVVPSPDTQEKGAQEVPFPKTEEVESAISNGVTGQLNIVQYIKPEPDGAFSSSCLGGNSKINSDSSFSVPIKQESTKHSCSGTSFKGNPTVNPFPFMDGSYFSFMDDKDYYSLSGILGPPVPGFDGNCEGSGFPVGIKQEPDDGSYYPEASIPSSAIVGVNSGGQSFHYRIGAQGTISLSRSARDQSFQHLSSFPPVNTLVESWKSHGDLSSRRSDGYPVLEYIPENVSSSTLRSVSTGSSRPSKICLVCGDEASGCHYGVVTCGSCKVFFKRAVEGQHNYLCAGRNDCIIDKIRRKNCPACRLQKCLQAGMNLGARKSKKLGKLKGIHEEQPQQQQPPPPPPPPQSPEEGTTYIAPAKEPSVNTALVPQLSTISRALTPSPVMVLENIEPEIVYAGYDSSKPDTAENLLSTLNRLAGKQMIQVVKWAKVLPGFKNLPLEDQITLIQYSWMCLSSFALSWRSYKHTNSQFLYFAPDLVFNEEKMHQSAMYELCQGMHQISLQFVRLQLTFEEYTIMKVLLLLSTIPKDGLKSQAAFEEMRTNYIKELRKMVTKCPNNSGQSWQRFYQLTKLLDSMHDLVSDLLEFCFYTFRESHALKVEFPAMLVEIISDQLPKVESGNAKPLYFHRK
B3: NR4a2: NR4a2 (NR4A2; NURR1), nuclear hormone receptor cDNA driver (protein, UniProt P43354 1-598, looked up)
Nuclear receptor subfamily 4 …: MPCVQAQYGSSPQGASPASQSYSYHSSGEYSSDFLTPEFVKFSMDLTNTEITATTSLPSFSTFMDNYSTGYDVKPPCLYQMPLSGQQSSIKVEDIQMHNYQQHSHLPPQSEEMMPHSGSVYYKPSSPPTPTTPGFQVQHSPMWDDPGSLHNFHQNYVATTHMIEQRKTPVSRLSLFSFKQSPPGTPVSSCQMRFDGPLHVPMNPEPAGSHHVVDGQTFAVPNPIRKPASMGFPGLQIGHASQLLDTQVPSPPSRGSPSNEGLCAVCGDNAACQHYGVRTCEGCKGFFKRTVQKNAKYVCLANKNCPVDKRRRNRCQYCRFQKCLAVGMVKEVVRTDSLKGRRGRLPSKPKSPQEPSPPSPPVSLISALVRAHVDSNPAMTSLDYSRFQANPDYQMSGDDTQHIQQFYDLLTGSMEIIRGWAEKIPGFADLPKADQDLLFESAFLELFVLRLAYRSNPVEGKLIFCNGVVLHRLQCVRGFGEWIDSIVEFSSNLQNMNIDISAFSCIAALAMVTERHGLKEPKRVEELQNKIVNCLKDHVTFNNGGLNRPNYLSKLLGKLPELRTLCTQGLQRIFYLKLEDLVPPPAIIDKLFLDTLPF
B4: CTF2: COUP-TF2 (NR2F2), cDNA driver (protein, UniProt P24468 1-414, looked up)
COUP transcription factor 2: MAMVVSTWRDPQDEVPGSQGSQASQAPPVPGPPPGAPHTPQTPGQGGPASTPAQTAAGGQGGPGGPGSDKQQQQQHIECVVCGDKSSGKHYGQFTCEGCKSFFKRSVRRNLSYTCRANRNCPIDQHHRNQCQYCRLKKCLKVGMRREAVQRGRMPPTQPTHGQFALTNGDPLNCHSYLSGYISLLLRAEPYPTSRFGSQCMQPNNIMGIENICELAARMLFSAVEWARNIPFFPDLQITDQVALLRLTWSELFVLNAAQCSMPLHVAPLLAAAGLHASPMSADRVVAFMDHIRIFQEQVEKLKALHVDSAEYSCLKAIVLFTSDACGLSDVAHVESLQEKSQCALEEYVRSQYPNQPTRFGKLLLRLPSLRTVSSSVIEQLFFVRLVGKTPIETLIRDMLLSGSSFNWPYMAIQ
B5: CTF3: COUP-TF3 (NR2F6), cDNA driver (protein, UniProt P10588 1-404, looked up)
Nuclear receptor subfamily 2 …: MAMVTGGWGGPGGDTNGVDKAGGYPRAAEDDSASPPGAASDAEPGDEERPGLQVDCVVCGDKSSGKHYGVFTCEGCKSFFKRSIRRNLSYTCRSNRDCQIDQHHRNQCQYCRLKKCFRVGMRKEAVQRGRIPHSLPGAVAASSGSPPGSALAAVASGGDLFPGQPVSELIAQLLRAEPYPAAAGRFGAGGGAAGAVLGIDNVCELAARLLFSTVEWARHAPFFPELPVADQVALLRLSWSELFVLNAAQAALPLHTAPLLAAAGLHAAPMAAERAVAFMDQVRAFQEQVDKLGRLQVDSAEYGCLKAIALFTPDACGLSDPAHVESLQEKAQVALTEYVRAQYPSQPQRFGRLLLRLPALRAVPASLISQLFFMRLVGKTPIETLIRDMLLSGSTFNWPYGSGQ

Key:
[1] = system: hCAR promoter; test: NHR-promoter luciferase screen, hCAR promoter; type: cell-based, human; settings: for luciferase activity normalized to lacZ activity and to a control, hCAR: hCAR promoter-luciferase, CV-1 cells, NHR +/- ligand, control = 1.00; for Luc. act., normalized to lacZ / Normalized Luc. act., normalized to control: hCAR promoter, HR/ligand component
Method in brief: (§1)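 CV-1 cells were co-transfected with 50 ng NHR (homodimer or NHR/RXR heterodimer), 100 ng promoter-luciferase construct and 50 ng LacZ. Luciferase was normalized to LacZ and to a no-NHR/no-ligand control.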

[2] = system: mPgc1b promoter; test: NHR-promoter luciferase screen, mPgc1b promoter; type: cell-based, mouse; settings: for Luc. act., normalized to lacZ / Normalized Luc. act., normalized to control: PGC1b promoter reporter, co-transfected HR, without or with its ligand; for Normalized Luc. act., normalized to control: relative to control; for luciferase activity normalized to lacZ activity and to a control, mPgc1b: mPgc1b promoter-luciferase, CV-1 cells, NHR +/- ligand, control = 1.00
Method in brief: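 CV-1 cells co-transfected with NHR homodimer or NHR/RXR heterodimer (pcDNA3.1, C-terminal V5H6 tag), promoter-luciferase construct and LacZ transfection control. Orphan receptors screened without ligand. Luciferase normalized to LacZ and to no-NHR/no-ligand control.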

[3] = system: mUCP1 promoter; test: NHR-promoter luciferase screen, mUCP1 promoter; type: cell-based, mouse; settings: for Luc. act., normalized to lacZ / Normalized Luc. act., normalized to control: mUCP1 promoter reporter, co-transfected HR, with or without its ligand; for Normalized Luc. act., normalized to control: relative to control; for luciferase activity normalized to lacZ activity and to a control, mUCP!: mUCP! promoter-luciferase, CV-1 cells, NHR +/- ligand, control = 1.00
Method in brief: as §1

[4] = system: hPOMC promoter; test: NHR-promoter luciferase screen, hPOMC promoter; type: cell-based, human; settings: for Luc. act., normalized to lacZ / Normalized Luc. act., normalized to control: hPOMC promoter, HR/ligand component; for hPOMC promoter reporter activity: transcription factor +/- ligand, control = 1.00
Method in brief: as §1

[5] = system: mUCP3 promoter; test: NHR-promoter luciferase screen, mUCP3 promoter; type: cell-based, mouse; settings: for Normalized Luc. act., normalized to control / Luc. act., normalized to lacZ: mUCP3 promoter reporter; for Normalized Luc. act., normalized to control: HR without or with its ligand, relative to control; for Luc. act., normalized to lacZ: hormone receptor (HR) without or with its ligand; for mUCP3 promoter reporter activity: transcription factor +/- ligand, control = 1.00
Method in brief: as §1

[6] = system: MCP-1 promoter; test: NHR-promoter luciferase screen, MCP-1 promoter; type: cell-based; settings: for Normalized Luc. act., normalized to control / Luc. act., normalized to lacZ: MCP-1 promoter reporter; for Normalized Luc. act., normalized to control: HR without or with its ligand, relative to control; for Luc. act., normalized to lacZ: hormone receptor (HR) without or with its ligand; for mMCP-1 promoter reporter activity: transcription factor +/- ligand, control = 1.00
Method in brief: as §1

Molecule	luciferase activity normalized to lacZ activity and to a control, hCAR [1]	Luc. act., normalized to lacZ [1]	Normalized Luc. act., normalized to control [1]	Luc. act., normalized to lacZ [2]	Normalized Luc. act., normalized to control [2]	luciferase activity normalized to lacZ activity and to a control, mPgc1b [2]	Luc. act., normalized to lacZ [3]	Normalized Luc. act., normalized to control [3]	luciferase activity normalized to lacZ activity and to a control, mUCP! [3]	Luc. act., normalized to lacZ [4]	Normalized Luc. act., normalized to control [4]	hPOMC promoter reporter activity [4]	Normalized Luc. act., normalized to control [5]	Luc. act., normalized to lacZ [5]	mUCP3 promoter reporter activity [5]	Normalized Luc. act., normalized to control [6]	Luc. act., normalized to lacZ [6]	mMCP-1 promoter reporter activity [6]
B1	1.00	31.5	1.0	8.9	0.7	0.75	5.4	1.2	1.21	3.2	0.7	0.75	1.3	0.86	1.27	1.2	128.0	1.20
B2	0.81	25.6	0.8	5.7	0.5	0.48	2.1	0.5	0.48	–	0.0	0.00	0.7	0.50	0.74	0.0	–	0.00
B3	0.58	18.4	0.6	9.0	0.8	0.76	4.4	1.0	0.99	2.1	0.5	0.49	1.0	0.68	1.01	0.6	58.9	0.55
B4	0.23	7.2	0.2	12.2	1.0	1.03	1.9	0.4	0.43	–	0.0	0.00	0.9	0.6	0.91	0.0	–	0.00
B5	0.14	4.5	0.1	4.9	0.4	0.42	1.9	0.4	0.42	1.8	0.4	0.42	0.8	0.6	0.82	1.6	175.5	1.64
